Test [1] concerns the target T1, human amylin-3(a) receptor (human, UniProt P30988 25-474; O60896 24-148).
T1 sequence (looked up) 1: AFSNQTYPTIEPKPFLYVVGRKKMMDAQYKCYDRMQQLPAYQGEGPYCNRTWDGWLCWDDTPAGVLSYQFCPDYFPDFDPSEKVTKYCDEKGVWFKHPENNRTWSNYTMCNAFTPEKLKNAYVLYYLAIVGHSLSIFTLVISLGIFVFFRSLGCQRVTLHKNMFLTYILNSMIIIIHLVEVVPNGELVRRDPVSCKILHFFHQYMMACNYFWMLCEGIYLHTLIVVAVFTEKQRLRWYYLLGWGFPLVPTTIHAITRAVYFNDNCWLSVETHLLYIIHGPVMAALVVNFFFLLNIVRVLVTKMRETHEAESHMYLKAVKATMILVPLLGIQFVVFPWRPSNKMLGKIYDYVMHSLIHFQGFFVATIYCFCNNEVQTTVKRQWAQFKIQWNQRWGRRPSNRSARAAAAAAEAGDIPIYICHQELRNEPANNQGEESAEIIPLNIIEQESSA
T1 sequence (looked up) 2: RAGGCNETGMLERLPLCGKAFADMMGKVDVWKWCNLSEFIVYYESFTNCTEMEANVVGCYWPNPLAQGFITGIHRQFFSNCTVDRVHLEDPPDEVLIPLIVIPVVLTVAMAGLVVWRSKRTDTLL
Kind of test: cell-based or functional assay.

Test [2] concerns the target T2, human calcitonin receptor (a) (human, UniProt P30988 25-474).
T2 sequence (looked up): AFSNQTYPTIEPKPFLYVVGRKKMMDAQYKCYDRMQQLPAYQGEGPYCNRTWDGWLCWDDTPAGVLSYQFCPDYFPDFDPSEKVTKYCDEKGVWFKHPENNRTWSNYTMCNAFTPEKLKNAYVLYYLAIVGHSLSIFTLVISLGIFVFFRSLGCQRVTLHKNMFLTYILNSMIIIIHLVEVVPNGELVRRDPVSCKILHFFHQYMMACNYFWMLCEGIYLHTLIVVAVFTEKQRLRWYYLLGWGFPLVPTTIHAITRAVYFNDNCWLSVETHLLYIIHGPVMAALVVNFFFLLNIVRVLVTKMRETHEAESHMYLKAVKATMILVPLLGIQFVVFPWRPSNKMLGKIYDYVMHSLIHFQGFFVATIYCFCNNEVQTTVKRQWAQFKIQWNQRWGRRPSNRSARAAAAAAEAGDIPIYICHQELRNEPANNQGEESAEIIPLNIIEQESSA
Kind of test: cell-based or functional assay.

*1 amine or outer side, *2 acyl side, *3 side chain or, on linkers, in order; H or OH if unused. The star is where a group is joined. C20 diacid = O=C(O)CCCCCCCCCCCCCCCCCCC(=O)*; C18 diacid = O=C(O)CCCCCCCCCCCCCCCCC(=O)*; γGlu = O=C(O)[C@H](CCC(=O)[*:2])N[*:1]

B1: N^1-[(4S)-4-carboxy-4-(17-carboxyheptadecanoylamino)butanoyl]-[Ala1,Ser2,His3,Leu4,Ser5,Ala7,Gln8,Glu14,His17,Asp21, Pro22,Pro27,Asp31, Pro34,Pro37]-human … (peptide)
peptide: {C18 diacid-γGlu}-ASHLSTAQTQRLAEFLHHSSDPFGAIPSSTDVGPNTP-NH2
SMILES: CC[C@H](C)[C@H](NC(=O)[C@H](C)NC(=O)CNC(=O)[C@H](Cc1ccccc1)NC(=O)[C@@H]1CCCN1C(=O)[C@H](CC(=O)O)NC(=O)[C@H](CO)NC(=O)[C@H](CO)NC(=O)[C@H](Cc1c[nH]cn1)NC(=O)[C@H](Cc1c[nH]cn1)NC(=O)[C@H](CC(C)C)NC(=O)[C@H](Cc1ccccc1)NC(=O)[C@H](CCC(=O)O)NC(=O)[C@H](C)NC(=O)[C@H](CC(C)C)NC(=O)[C@H](CCCNC(=N)N)NC(=O)[C@H](CCC(N)=O)NC(=O)[C@@H](NC(=O)[C@H](CCC(N)=O)NC(=O)[C@H](C)NC(=O)[C@@H](NC(=O)[C@H](CO)NC(=O)[C@H](CC(C)C)NC(=O)[C@H](Cc1c[nH]cn1)NC(=O)[C@H](CO)NC(=O)[C@H](C)NC(=O)CC[C@H](NC(=O)CCCCCCCCCCCCCCCCC(=O)O)C(=O)O)[C@@H](C)O)[C@@H](C)O)C(=O)N1CCC[C@H]1C(=O)N[C@@H](CO)C(=O)N[C@@H](CO)C(=O)N[C@H](C(=O)N[C@@H](CC(=O)O)C(=O)N[C@H](C(=O)NCC(=O)N1CCC[C@H]1C(=O)N[C@@H](CC(N)=O)C(=O)N[C@H](C(=O)N1CCC[C@H]1C(N)=O)[C@@H](C)O)C(C)C)[C@@H](C)O
As for B1, the “hAmyR3 potency, EC50 (pM); CRE-luciferase reporter in BHK cells” value (“hAmyR3 potency, EC50 (pM)” below) in test [1] was determined as 1.31 pM. Besides, the “hCalcR potency, EC50 (pM); CRE-luciferase reporter in BHK cells” value (“hCalcR potency, EC50 (pM)” below) in test [2] is 2.19 pM.

B2: N^1-[(4S)-4-carboxy-4-(19-carboxynonadecanoylamino)butanoyl]-[Ala1,Ser2,His3,Leu4,Ser5,Ala7,Gln8,Glu14,His17,Pro25,Pro28,Pro29,Asp31,Glu35,Pro37],des-(19-22)-hu … (peptide)
peptide: {C20 diacid-γGlu}-ASHLSTAQTQRLAEFLHHFGPILPPTDVGSETP-NH2
SMILES: CC[C@H](C)[C@H](NC(=O)[C@@H]1CCCN1C(=O)CNC(=O)[C@H](Cc1ccccc1)NC(=O)[C@H](Cc1c[nH]cn1)NC(=O)[C@H](Cc1c[nH]cn1)NC(=O)[C@H](CC(C)C)NC(=O)[C@H](Cc1ccccc1)NC(=O)[C@H](CCC(=O)O)NC(=O)[C@H](C)NC(=O)[C@H](CC(C)C)NC(=O)[C@H](CCCNC(=N)N)NC(=O)[C@H](CCC(N)=O)NC(=O)[C@@H](NC(=O)[C@H](CCC(N)=O)NC(=O)[C@H](C)NC(=O)[C@@H](NC(=O)[C@H](CO)NC(=O)[C@H](CC(C)C)NC(=O)[C@H](Cc1c[nH]cn1)NC(=O)[C@H](CO)NC(=O)[C@H](C)NC(=O)CC[C@H](NC(=O)CCCCCCCCCCCCCCCCCCC(=O)O)C(=O)O)[C@@H](C)O)[C@@H](C)O)C(=O)N[C@@H](CC(C)C)C(=O)N1CCC[C@H]1C(=O)N1CCC[C@H]1C(=O)N[C@H](C(=O)N[C@@H](CC(=O)O)C(=O)N[C@H](C(=O)NCC(=O)N[C@@H](CO)C(=O)N[C@@H](CCC(=O)O)C(=O)N[C@H](C(=O)N1CCC[C@H]1C(N)=O)[C@@H](C)O)C(C)C)[C@@H](C)O
B2: the “hAmyR3 potency, EC50 (pM)” value in test [1] was determined as 1.12 pM. Further, in test [2], the “hCalcR potency, EC50 (pM)” value is 1.44 pM.

B3: N^1-[(4S)-4-carboxy-4-(17-carboxyheptadecanoylamino)butanoyl]-[Ala1,Ser2,His3,Leu4,Ser5,Ala7,Gln8,Ala10,Glu14,His17,Asp21,Pro22,Pro27,Asp31,Pro34,Asp35,Pro37]-h … (peptide)
peptide: {C18 diacid-γGlu}-ASHLSTAQTARLAEFLHHSSDPFGAIPSSTDVGPDTP-NH2
SMILES: CC[C@H](C)[C@H](NC(=O)[C@H](C)NC(=O)CNC(=O)[C@H](Cc1ccccc1)NC(=O)[C@@H]1CCCN1C(=O)[C@H](CC(=O)O)NC(=O)[C@H](CO)NC(=O)[C@H](CO)NC(=O)[C@H](Cc1c[nH]cn1)NC(=O)[C@H](Cc1c[nH]cn1)NC(=O)[C@H](CC(C)C)NC(=O)[C@H](Cc1ccccc1)NC(=O)[C@H](CCC(=O)O)NC(=O)[C@H](C)NC(=O)[C@H](CC(C)C)NC(=O)[C@H](CCCNC(=N)N)NC(=O)[C@H](C)NC(=O)[C@@H](NC(=O)[C@H](CCC(N)=O)NC(=O)[C@H](C)NC(=O)[C@@H](NC(=O)[C@H](CO)NC(=O)[C@H](CC(C)C)NC(=O)[C@H](Cc1c[nH]cn1)NC(=O)[C@H](CO)NC(=O)[C@H](C)NC(=O)CC[C@H](NC(=O)CCCCCCCCCCCCCCCCC(=O)O)C(=O)O)[C@@H](C)O)[C@@H](C)O)C(=O)N1CCC[C@H]1C(=O)N[C@@H](CO)C(=O)N[C@@H](CO)C(=O)N[C@H](C(=O)N[C@@H](CC(=O)O)C(=O)N[C@H](C(=O)NCC(=O)N1CCC[C@H]1C(=O)N[C@@H](CC(=O)O)C(=O)N[C@H](C(=O)N1CCC[C@H]1C(N)=O)[C@@H](C)O)C(C)C)[C@@H](C)O
B3: the “hAmyR3 potency, EC50 (pM)” value in test [1] was found to be 1.27 pM. In addition, the “hCalcR potency, EC50 (pM)” value in test [2] is 1.5 pM.

B4: N^1-[(4S)-4-carboxy-4-(17-carboxyheptadecanoylamino)butanoyl]-[Ala1,Ser2,Gln3,Leu4,Ser5,Ala7,Gln8,Glu14, His17,Asp21, Pro22, Pro27,Asp31,Pro34,Asp35, … (peptide)
peptide: {C18 diacid-γGlu}-ASQLSTAQTQRLAEFLHHSSDPFGAIPSSTDVGPDTP-NH2
SMILES: CC[C@H](C)[C@H](NC(=O)[C@H](C)NC(=O)CNC(=O)[C@H](Cc1ccccc1)NC(=O)[C@@H]1CCCN1C(=O)[C@H](CC(=O)O)NC(=O)[C@H](CO)NC(=O)[C@H](CO)NC(=O)[C@H](Cc1c[nH]cn1)NC(=O)[C@H](Cc1c[nH]cn1)NC(=O)[C@H](CC(C)C)NC(=O)[C@H](Cc1ccccc1)NC(=O)[C@H](CCC(=O)O)NC(=O)[C@H](C)NC(=O)[C@H](CC(C)C)NC(=O)[C@H](CCCNC(=N)N)NC(=O)[C@H](CCC(N)=O)NC(=O)[C@@H](NC(=O)[C@H](CCC(N)=O)NC(=O)[C@H](C)NC(=O)[C@@H](NC(=O)[C@H](CO)NC(=O)[C@H](CC(C)C)NC(=O)[C@H](CCC(N)=O)NC(=O)[C@H](CO)NC(=O)[C@H](C)NC(=O)CC[C@H](NC(=O)CCCCCCCCCCCCCCCCC(=O)O)C(=O)O)[C@@H](C)O)[C@@H](C)O)C(=O)N1CCC[C@H]1C(=O)N[C@@H](CO)C(=O)N[C@@H](CO)C(=O)N[C@H](C(=O)N[C@@H](CC(=O)O)C(=O)N[C@H](C(=O)NCC(=O)N1CCC[C@H]1C(=O)N[C@@H](CC(=O)O)C(=O)N[C@H](C(=O)N1CCC[C@H]1C(N)=O)[C@@H](C)O)C(C)C)[C@@H](C)O
As for B4, the “hAmyR3 potency, EC50 (pM)” value in test [1] came out at 1.49 pM. For the same molecule, the “hCalcR potency, EC50 (pM)” value in test [2] was 1.56 pM.

B5: N^1-[(4S)-4-carboxy-4-(17-carboxyheptadecanoylamino)butanoyl]-[Ala1,Ser2,His3,Leu4,Ser5,Ala7,Gln8,Glu14,His17,Glu21,Pro22,Pro27,Glu31,Pro34,Glu35,Pro37]-human … (peptide)
peptide: {C18 diacid-γGlu}-ASHLSTAQTQRLAEFLHHSSEPFGAIPSSTEVGPETP-NH2
SMILES: CC[C@H](C)[C@H](NC(=O)[C@H](C)NC(=O)CNC(=O)[C@H](Cc1ccccc1)NC(=O)[C@@H]1CCCN1C(=O)[C@H](CCC(=O)O)NC(=O)[C@H](CO)NC(=O)[C@H](CO)NC(=O)[C@H](Cc1c[nH]cn1)NC(=O)[C@H](Cc1c[nH]cn1)NC(=O)[C@H](CC(C)C)NC(=O)[C@H](Cc1ccccc1)NC(=O)[C@H](CCC(=O)O)NC(=O)[C@H](C)NC(=O)[C@H](CC(C)C)NC(=O)[C@H](CCCNC(=N)N)NC(=O)[C@H](CCC(N)=O)NC(=O)[C@@H](NC(=O)[C@H](CCC(N)=O)NC(=O)[C@H](C)NC(=O)[C@@H](NC(=O)[C@H](CO)NC(=O)[C@H](CC(C)C)NC(=O)[C@H](Cc1c[nH]cn1)NC(=O)[C@H](CO)NC(=O)[C@H](C)NC(=O)CC[C@H](NC(=O)CCCCCCCCCCCCCCCCC(=O)O)C(=O)O)[C@@H](C)O)[C@@H](C)O)C(=O)N1CCC[C@H]1C(=O)N[C@@H](CO)C(=O)N[C@@H](CO)C(=O)N[C@H](C(=O)N[C@@H](CCC(=O)O)C(=O)N[C@H](C(=O)NCC(=O)N1CCC[C@H]1C(=O)N[C@@H](CCC(=O)O)C(=O)N[C@H](C(=O)N1CCC[C@H]1C(N)=O)[C@@H](C)O)C(C)C)[C@@H](C)O
For B5, the “hAmyR3 potency, EC50 (pM)” value in test [1] came to 2.68 pM. In addition, in test [2], the “hCalcR potency, EC50 (pM)” value was 1.78 pM.

B6: N^1-[(4S)-4-carboxy-4-(17-carboxyheptadecanoylamino)butanoyl]-[Ala1,Ser2,His3,Leu4,Ser5,Ala7,Gln8,Glu14,His17,Pro25,Pro28,Pro29,Asp31,Glu35,Pro37],des-(19-22)-h … (peptide)
peptide: {C18 diacid-γGlu}-ASHLSTAQTQRLAEFLHHFGPILPPTDVGSETP-NH2
SMILES: CC[C@H](C)[C@H](NC(=O)[C@@H]1CCCN1C(=O)CNC(=O)[C@H](Cc1ccccc1)NC(=O)[C@H](Cc1c[nH]cn1)NC(=O)[C@H](Cc1c[nH]cn1)NC(=O)[C@H](CC(C)C)NC(=O)[C@H](Cc1ccccc1)NC(=O)[C@H](CCC(=O)O)NC(=O)[C@H](C)NC(=O)[C@H](CC(C)C)NC(=O)[C@H](CCCNC(=N)N)NC(=O)[C@H](CCC(N)=O)NC(=O)[C@@H](NC(=O)[C@H](CCC(N)=O)NC(=O)[C@H](C)NC(=O)[C@@H](NC(=O)[C@H](CO)NC(=O)[C@H](CC(C)C)NC(=O)[C@H](Cc1c[nH]cn1)NC(=O)[C@H](CO)NC(=O)[C@H](C)NC(=O)CC[C@H](NC(=O)CCCCCCCCCCCCCCCCC(=O)O)C(=O)O)[C@@H](C)O)[C@@H](C)O)C(=O)N[C@@H](CC(C)C)C(=O)N1CCC[C@H]1C(=O)N1CCC[C@H]1C(=O)N[C@H](C(=O)N[C@@H](CC(=O)O)C(=O)N[C@H](C(=O)NCC(=O)N[C@@H](CO)C(=O)N[C@@H](CCC(=O)O)C(=O)N[C@H](C(=O)N1CCC[C@H]1C(N)=O)[C@@H](C)O)C(C)C)[C@@H](C)O
B6: the “hAmyR3 potency, EC50 (pM)” value in test [1] was 2.06 pM. The “hCalcR potency, EC50 (pM)” value in test [2] was 1.72 pM.

These data come from patent US20260209293A1 (Novo Nordisk, published 2026).
